Results reported in patent US20060204957A1, “Mta1s, a steriod hormone receptor corepressor” (priority 2002, published 2006).

Columns and labels:
[1] = tested on: ER; test: ERE promoter-reporter assay, estradiol-stimulated, MCF-7 cells; type: cell-based, human; details: transient expression in MCF-7 cells
Protocol: (§1) Transfection was performed using a Fugene-6 kit (Roche Biochemical, New Jersey) as per the manufacturer's instructions. Cells were transiently cotransfected with a reporter construct and (β-galactosidase, and assayed for luciferase activity as described.
Since MTA1 is a corepressor of ER (Mazumdar, et al., 2001, incorporated herein by reference), the ability of MTA1 cDNAs to repress the transactivating function of ER were investigated.

[2] = molecular target: T1, ERα (Homo sapiens, UniProt P03372); test: Confocal localization of ERα in estradiol-stimulated MCF-7 cells; type: cell-based; details: estradiol stimulated MCF-7 cells expressing the construct
T1 construct: endogenous in cells; host or cells: MCF-7 cells transfected with T7-MTA1s or MTA1s-del
Protocol: The cellular localization of T7-MTA1s, and ER was determined using indirect immunofluorescence as described in Mazumdar et al., 2001, herein incorporated by reference. Cells were treated with or without anti-T7 mAb or ER Ab followed by 546-Alexa-labeled goat anti-mouse Ab or 488-Alexa.
Expression of MTA1s-del but not wild type MTA1s was accompanied by the presence of ERα in the nucleus in more than 90% of the cell expressing MTA1s-del. Together, these findings indicated a pivotal role of LRILL motif in the cytoplasmic sequestration of ERα.

[3] = tested on: glucocortocoid responsive element (GRE) transcription; test: GRE reporter assay, dexamethasone-stimulated, MCF-7 cells; type: cell-based, human; details: transient expression
Protocol: (§2) FIGS. 6A-6B. Typical transcriptional repression by MTA1s. FIG. 6A illustrates an example of repression of dexamethasone (10^−9 M)-mediated stimulation of GRE-CAT activity in MCF-7 cells by MTA1s. FIG. 6B illustrates the exemplary repression of progesterone (10^−9 M)-mediated stimulation of PRE-luciferase activity in MCF-7 cells by MTA1s. Cells were cotransfected with β-galactosidase to assess transfection efficiency, and normalized results are presented here.
as §1

[4] = tested on: progesterone responsive element (PRE) transcription; test: PRE reporter assay, progesterone-stimulated, MCF-7 cells; type: cell-based, human; details: transient expression
Protocol: as §2, §1

[5] = tested on: ER; test: GST pull-down assay; type: binding; details: in vitro translated protein, GST fusion
Protocol: Incubating equal amounts of GST […] GST-AF2 or GST-AF 1 proteins immobilized to glutathione-sepharose beads with in vitro translated ^35S-labelled MTA1s, protein as described.
Since MTA1s lacked the nuclear signal sequence, the subcellular localization and function of MTA1s was examined. […] The role of MTA1s, in breast cancer cells, was investigated by generating stable clones of ZR-75R cells expressing T7-MTA1s (FIG. 3B). Subcellular fractionation of the ZR-75R cells expressing MTA1s confirmed that T7-MTA1s was in the cytoplasm. To assess the purity of the fractions, immunoblotting with antibodies against the nuclear corepressor PELP1 (Vadlamudi, et al., 2000) and cytosolic paxillin (FIG. 3C) were used. To understand the impact of MTA1s on the status of ER, immunostaining with an anti-ER mAb were used on MCF-7 cells that were transfected with the T7-MTA1s. The expression of T7-MTA1s was accompanied by a significant reduction in the nuclear ER immunoreactivity (FIG. 3D), raising the possibility that MTA1s regulates ER. To confirm the interaction between the MTA1s and endogenous ER, immunoprecipitation of T7-MTA1s with an anti-T7 mAb was used. […] To investigate whether the association between MTA1s and ER was direct or mediated by other proteins, the ability of in vitro-translated ER protein to bind with GST-MTA1s was investigated. […]
Target sequence in this assay (P03372 311-595 limits assumed): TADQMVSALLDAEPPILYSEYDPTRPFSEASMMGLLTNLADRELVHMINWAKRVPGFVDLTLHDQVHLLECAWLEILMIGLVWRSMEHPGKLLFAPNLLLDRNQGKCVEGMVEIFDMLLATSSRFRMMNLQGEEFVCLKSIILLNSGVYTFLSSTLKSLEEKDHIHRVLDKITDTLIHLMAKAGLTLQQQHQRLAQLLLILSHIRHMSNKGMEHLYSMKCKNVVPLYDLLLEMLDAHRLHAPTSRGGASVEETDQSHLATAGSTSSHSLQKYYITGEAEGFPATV

[6] = tested on: pS2, c-Myc and cathepsin-D; test: Expression of ER-target genes in ZR-75R cells; type: cell-based, human; details: ZR-75R/MTA1s cells
Protocol: FIGS. 5A-5F. MTA1s may impair genomic responses and upregulates the MAP kinase pathway in ZR75R breast cancer cells. […] FIG. 5B illustrates an example of the status of E2 (10^−9 M for 16 h)-induced stimulation of pS2 mRNA. […] Treatment, 5 min. with E2 (10^−9 M) or ICI 182780 (10^−8 M) or both. […] Treatment, 5 min with E2 (10^−9 M) or ICI 182780 (10^−8 M) or both. Relative levels of p42/44Phos are shown underneath.

[7] = tested on: ZR-75R or MCF-7 cells; test: Soft-agar anchorage-independent growth assay; type: cell-based, human; details: stable expression in ZR-75R or MCF-7 cells
Source text: (§3) FIGS. 11A-11E. MTA1s may stimulate aggressive phenotypes in breast cancer cells. FIG. 11A illustrates an example of MTA1s overexpression inhibiting PRE-driven but not RARE-driven transcription. FIG. […] illustrates the Growth-rate of ZR/pcDNA or ZR/MTA1s cells in monolayer culture in the presence of E2 alone or with ICI 182780 (10^−9 M for 4 days). FIG. 11C show an exemplary effect of MTA1s expression on anchorage independent growth of ZR/pcDNA and ZR/MTA1s cells grown in 10% serum in the presence or absence of ICI 182780 (10^−9 M) or 4HT (10^−8 M) for 14 days. […] FIG. 11E illustrates that MTA1s may induce tumorigenesis of breast cancer cells. 5×10^6 cells were subcutaneously inoculated in the athymic nude mice (n=10), and tumor volumes at day 21 were recorded.
(§4) Soft agar colony growth assays were performed as described in Mazumdar et al., 2001, herein incorporated by reference. For xenografts studies, 5×10^6 cells were implanted subcutaneously into mammary fat-pad of nude mice and allowed to grow for 21 days and tumor size was measured, as described in Mandal et al., 2001, herein incorporated by reference.

[8] = tested on: breast cancer cells; test: Tumorigenesis (xenograft) assay in nude mice; type: in vivo; details: MTA1s expressing cells implanted subcutaneously, 21 days
Source text: as §3, §4

T1 sequence (P03372 whole entry): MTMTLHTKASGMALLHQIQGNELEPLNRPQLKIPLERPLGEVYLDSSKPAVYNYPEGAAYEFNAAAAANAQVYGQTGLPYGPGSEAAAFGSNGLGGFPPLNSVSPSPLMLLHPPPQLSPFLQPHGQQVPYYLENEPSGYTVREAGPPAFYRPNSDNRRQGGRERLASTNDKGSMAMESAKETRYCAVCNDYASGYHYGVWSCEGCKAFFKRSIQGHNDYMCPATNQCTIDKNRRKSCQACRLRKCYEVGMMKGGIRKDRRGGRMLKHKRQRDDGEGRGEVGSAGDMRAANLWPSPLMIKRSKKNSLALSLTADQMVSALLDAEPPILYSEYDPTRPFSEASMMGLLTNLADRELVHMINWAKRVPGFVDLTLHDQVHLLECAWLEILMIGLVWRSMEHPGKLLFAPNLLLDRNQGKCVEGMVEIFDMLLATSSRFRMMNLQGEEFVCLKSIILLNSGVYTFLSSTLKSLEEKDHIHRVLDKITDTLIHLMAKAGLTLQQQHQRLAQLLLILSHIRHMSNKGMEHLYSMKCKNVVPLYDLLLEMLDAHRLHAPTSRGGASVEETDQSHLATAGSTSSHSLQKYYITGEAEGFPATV

B1: MTA1s-stop: MTA1s mutant made by adding a stop codon and deleting the entire 33 amino acids (protein)
chain: MAANMYRVGDYVYFENSSSNPYLIRRIEELNKTANGNVEAKVVCFYRRRDISSTLIALADKHATLSVCYKAGPGADNGEEGEIEEEMENPEMVDLPEKLKHQLRHRELFLSRQLESLPATHIRGKCSVTLLNETESLKSYLEREDFFFYSLVYDPQQKTLLADKGEIRVGNRYQADITDLLKEGEEDGRDQSRLETQVWEAHNPLTDKQIDQFLVVARSVGTFARALDCSSSVRQPSLHMSAAAASRDITLFHAMDTLHKNIYDISKAISALVPQGGPVLCRDEMEEWSASEANLFEEALEKYGKDFTDIQQDFLPWKSLTSIIEYYYMWKTTDRYVQQKRLKAAEAESKLKQVYIPNYNKPNPNQISVNNVKAGVVNGTGAPGQSPGAGRACESCY
With B1 the “repression of estradiol's ability to stimulate ERE transcription” value (shortened to “repression of estradiol's ability”) [1] was “did not result in a significant suppression”.

B2: full-length MTA1: 715 amino acid metastasis-associated protein, corepressor of nuclear Estrogen Receptor α (protein, UniProt Q13330 1-715, looked up)
chain: MAANMYRVGDYVYFENSSSNPYLIRRIEELNKTANGNVEAKVVCFYRRRDISSTLIALADKHATLSVCYKAGPGADNGEEGEIEEEMENPEMVDLPEKLKHQLRHRELFLSRQLESLPATHIRGKCSVTLLNETESLKSYLEREDFFFYSLVYDPQQKTLLADKGEIRVGNRYQADITDLLKEGEEDGRDQSRLETQVWEAHNPLTDKQIDQFLVVARSVGTFARALDCSSSVRQPSLHMSAAAASRDITLFHAMDTLHKNIYDISKAISALVPQGGPVLCRDEMEEWSASEANLFEEALEKYGKDFTDIQQDFLPWKSLTSIIEYYYMWKTTDRYVQQKRLKAAEAESKLKQVYIPNYNKPNPNQISVNNVKAGVVNGTGAPGQSPGAGRACESCYTTQSYQWYSWGPPNMQCRLCASCWTYWKKYGGLKMPTRLDGERPGPNRSNMSPHGLPARSSGSPKFAMKTRQAFYLHTTKLTRIARRLCREILRPWHAARHPYLPINSAAIKAECTARLPEASQSPLVLKQAVRKPLEAVLRYLETHPRPPKPDPVKSVSSVLSSLTPAKVAPVINNGSPTILGKRSYEQHNGVDGNMKKRLLMPSRGLANHGQARHMGPSRNLLLNGKSYPTKVRLIRGGSLPPVKRRRMNWIDAPDDVFYMATEETRKIRKLLSSSETKRAARRPYKPIALRQSQALPPRPPPPAPVNDEPIVIED
modifications: full-length
notes: 715 amino acid metastasis-associated protein, corepressor of nuclear Estrogen Receptor α
B2 was tested, and the “repression of estradiol's ability” value [1] was “effectively blocked”.

B3: MTA1s-del: MTA1s mutant made by deleting the LRILL motif (protein)
chain: MAANMYRVGDYVYFENSSSNPYLIRRIEELNKTANGNVEAKVVCFYRRRDISSTLIALADKHATLSVCYKAGPGADNGEEGEIEEEMENPEMVDLPEKLKHQLRHRELFLSRQLESLPATHIRGKCSVTLLNETESLKSYLEREDFFFYSLVYDPQQKTLLADKGEIRVGNRYQADITDLLKEGEEDGRDQSRLETQVWEAHNPLTDKQIDQFLVVARSVGTFARALDCSSSVRQPSLHMSAAAASRDITLFHAMDTLHKNIYDISKAISALVPQGGPVLCRDEMEEWSASEANLFEEALEKYGKDFTDIQQDFLPWKSLTSIIEYYYMWKTTDRYVQQKRLKAAEAESKLKQVYIPNYNKPNPNQISVNNVKAGVVNGTGAPGQSPGAGRACESCYMSSDILEEIWWLENANPVRWREARTKPQ
For B3, the “repression of estradiol's ability” value [1] was “did not result in a significant suppression” and the “cells with ERα present in the nucleus” value [2] was “more than 90%”.

B4: MTA1s: novel 430 amino acid protein from an alternatively spliced MTA1 transcript, with unique 33 amino acid C-terminus (SEQ ID NO:2) (protein, listed as Homo sapiens)
chain: MAANMYRVGDYVYFENSSSNPYLIRRIEELNKTANGNVEAKVVCFYRRRDISSTLIALADKHATLSVCYKAGPGADNGEEGEIEEEMENPEMVDLPEKLKHQLRHRELFLSRQLESLPATHIRGKCSVTLLNETESLKSYLEREDFFFYSLVYDPQQKTLLADKGEIRVGNRYQADITDLLKEGEEDGRDQSRLETQVWEAHNPLTDKQIDQFLVVARSVGTFARALDCSSSVRQPSLHMSAAAASRDITLFHAMDTLHKNIYDISKAISALVPQGGPVLCRDEMEEWSASEANLFEEALEKYGKDFTDIQQDFLPWKSLTSIIEYYYMWKTTDRYVQQKRLKAAEAESKLKQVYIPNYNKPNPNQISVNNVKAGVVNGTGAPGQSPGAGRACESCYMSSLRILLDILEEIWWLENANPVRWREARTKPQ
In the case of B4, the “repression of estradiol's ability” value [1] is reported as “effectively blocked”, the “repression of GRE transcription stimulated by dexamethasone” value [3] is reported as “blocked the stimulation” and the “repression of PRE transcription stimulated by progesterone” value [4] is reported as “blocked the stimulation”. For the same molecule, the “binding to ER in GST pull-down” value [5] was “interacted with the GST-ER but not with GST alone”, the “expression of ER-target genes pS2, c-Myc and cathepsin-D” value [6] was “significantly reduced expression” and the “anchorage-independent growth in soft agar” value [7] was “significantly enhanced”. The “tumorigenicity in nude mice” value [8] was “more tumorigenic”.
